Measured values as given in patent publication US20120014885A1 (DANISCO US, published 2012).
Ends that are not written are not given here.

B1: 2BBIck81 (designed binder)
chain: DDESSKPCCDQCACTKSNPPQCRCSDMRLNSCHSACKSCACYNLYGWTCFCVDITDFCYEPCKPSEDDKEN
notes: also called free 2BBIck81; 2BBlck81
B2: SEQ ID NO 1 (peptide)
peptide: YNLYGWT
notes: Clone of the PhD C7C library (NEB): the 7-mer stands between two cysteines on M13 phage; tested as whole phage; also called YNLYGWT
B3: SEQ ID NO 2 (peptide)
peptide: TLWPTFW
notes: tested as whole phage
B4: SEQ ID NO 3 (peptide)
peptide: NLWPHFW
notes: tested as whole phage
B5: SEQ ID NO 4 (peptide)
peptide: SLWPAFW
notes: tested as whole phage
B6: SEQ ID NO 5 (peptide)
peptide: APWNSHI
notes: tested as whole phage
B7: SEQ ID NO 6 (peptide)
peptide: APWNLHI
notes: tested as whole phage
B8: SEQ ID NO 7 (peptide)
peptide: TLWPSYW
notes: tested as whole phage
B9: SEQ ID NO 13 (peptide)
peptide: HLAPSAV
notes: tested as whole phage
B10: BLA (enzyme)
chain: TPVSEKQLAEVVANTITPLMKAQSVPGMAVAVIYQGKPHYYTFGKADIAANKPVTPQTLFELGSISKTFTGVLGGDAIARGEISLDDAVTRYWPQLTGKQWQGIRMLDLATYTAGGLPLQVPDEVTDNASLLRFYQNWQPQWKPGTTRLYANASIGLFGALAVKPSGMPYEQAMTTRVLKPLKLDHTWINVPKAEEAHYAWGYRDGKAVRVSPGMLDAQAYGVKTNVQDMANWVMANMAPENVADASLKQGIALAQSRYWRIGSMYQGLGWEMLNWPVEANTVVEGSDSKVALAPLPVAEVNPPAPPVKASWVHKTGSTGGFGSYVAFIPEKQIGIVMLANTSYPNPARVEAAYHILEALQHHHHHH
notes: also called pCB04; pCB04 (WT)
B11: biotinylated peptide CK37281 (peptide)
peptide: ACYNLYGWTC
modifications: cysteine pairing not given here; also: biotinylated (site not given here)
notes: Synthetic peptide (FMOC chemistry, SynPep)

Key:
[1] = target: T1, VegF (PeproTech), labeled with biotin (UniProt P15692-4 27-191, limits assumed, biotin label (site not stated)); test: ECL competition assay (BioVeris): biotinylated VegF on streptavidin beads, competitor ECL labeled Anti-VegF antibody
T1 construct: Captured on streptavidin coated beads in the BioVeris ECL assay; also called biotinylated VegF

BSA [2] = target: T2, BSA (UniProt P02769 25-607); test: phage ELISA, equivalent amounts of phage, anti-M13-HRP, ABTS, A405 after 30 min (n=3)
Experimental: (§1) Equivalent amounts of phage were evaluated to determine their relative binding affinity to hVEGF₁₆₅. […] Target-bound phage were detected with anti-M13-HRP.

BSA [3] = target: T2, BSA; test: phage ELISA, anti-M13-HRP, ABTS, A405
Experimental: as §1

human VEGF165 [4] = target: T3, human VEGF165 (human, UniProt P15692-4 27-191); test: bound beta-lactamase activity (nitrocefin, mOD/min) on hVEGF165 coated wells after washing
T3 construct: Bought protein; panning target, amine-coupled to CM5 chips for BIAcore, coated on plates; also called hVEGF165; hVEGF

human VEGF165 [5] = target: T3, human VEGF165; test: SPR (BIAcore 3000), VEGF165 coupled to CM5, peptide injected, TNF-alpha reference lane; two state reaction model with conformation change; overall KD of the two state fit
Experimental: (§2) Affinities of the peptides for VEGF were measured using a BIAcore™-3000 surface plasmon resonance system (Biacore). A CM5 sensor chip was conditioned with 50 mM NaOH, 0.1% HCl, 0.1% SDS, and 0.08% H₃PO₄, and activated for covalent coupling of VEGF using N-ethyl-N′-(3-dimethylaminopropyl)-carbodiimide hydrochloride (EDC) and N-hydroxysuccinimide (NHS) according to the supplier's instructions (Biacore). Human VEGF₁₆₅ (Biosource) was diluted to 5 μg/ml in 20 mM sodium acetate, pH 4.8 and injected at a flow rate of 2 μl/min to achieve approximately 1000 to 6000 response units (RU) of coupled protein. TNF-alpha (human TNF-alpha, Biosource, Int., Camarillo, Calif.) was similarly coupled to the CM5 sensor chip to approximately 850 to 3500 RU in the reference lane. A solution of 1 M ethanolamine was injected as a blocking agent. In some experiments, an additional solution of EDC and NHS were injected to improve baseline stability and a solution of 1 M ethanolamine injected as a blocking agent. The reference lane was activated with EDC and NHS and blocked with ethanolamine.

human VEGF165 [6] = target: T3, human VEGF165; test: SPR (BIAcore 3000), VEGF165 coupled to CM5, peptide injected, TNF-alpha reference lane; two state reaction model with conformation change; first step of the two state fit (ka1)
Experimental: as §2

human VEGF165 [7] = target: T3, human VEGF165; test: SPR (BIAcore 3000), VEGF165 coupled to CM5, peptide injected, TNF-alpha reference lane; two state reaction model with conformation change; first step of the two state fit (kd1)
Experimental: as §2

T3 sequence (P15692 other isoform, or with tags, fused parts or gaps limits assumed): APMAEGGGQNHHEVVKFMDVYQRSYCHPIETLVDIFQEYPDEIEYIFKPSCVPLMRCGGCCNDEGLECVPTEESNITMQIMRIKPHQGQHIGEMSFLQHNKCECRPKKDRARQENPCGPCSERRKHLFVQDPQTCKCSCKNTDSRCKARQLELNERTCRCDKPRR
T2 sequence (P02769 25-607 limits assumed): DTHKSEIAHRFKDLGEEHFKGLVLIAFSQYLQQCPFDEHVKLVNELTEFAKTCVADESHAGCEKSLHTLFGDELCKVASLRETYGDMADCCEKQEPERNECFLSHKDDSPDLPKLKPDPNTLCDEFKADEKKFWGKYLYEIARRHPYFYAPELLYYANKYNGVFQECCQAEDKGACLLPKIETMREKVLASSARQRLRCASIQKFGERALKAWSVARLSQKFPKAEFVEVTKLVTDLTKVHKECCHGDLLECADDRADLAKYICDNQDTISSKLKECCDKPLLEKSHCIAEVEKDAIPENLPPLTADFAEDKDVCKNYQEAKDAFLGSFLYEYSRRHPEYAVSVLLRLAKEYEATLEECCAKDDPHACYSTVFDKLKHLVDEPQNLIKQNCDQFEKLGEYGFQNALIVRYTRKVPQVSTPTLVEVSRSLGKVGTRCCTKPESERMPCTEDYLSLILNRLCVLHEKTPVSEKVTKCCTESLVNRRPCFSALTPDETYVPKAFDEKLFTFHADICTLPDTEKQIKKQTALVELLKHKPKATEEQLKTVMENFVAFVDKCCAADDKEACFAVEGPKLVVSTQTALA
T1 sequence (P15692 other isoform, or with tags, fused parts or gaps limits assumed): as the sequence (P15692 other isoform, or with tags, fused parts or gaps limits assumed) above

Binder | binding result (BSA [2]) | further results
B1 |  | IC50 (read off the curve) [1]: ~3000 nM
B2 | no binding | 
B3 | no binding | 
B4 | no binding | 
B5 | no binding | 
B6 | no binding | 
B7 |  | binding result (BSA [3]): no binding
B8 | no binding | 
B9 | no binding | 
B10 |  | binding result (human VEGF165 [4]): no binding (tested: about 40 uM)
B11 |  | Kd (human VEGF165 [5]): 1920 nM; kon (human VEGF165 [6]): 2840 M⁻¹ s⁻¹; koff (human VEGF165 [7]): 0.0122 s⁻¹
